± gives the standard deviation of the averaged measurements.
Tested on: Saccharomyces cerevisiae
Test: protein stability index of tFT-peptide fusion (C-terminal peptide) (PSI (0-1 scale)); higher = more stable (slower turnover)
Conditions: genetic background: wild type; temperature: 30 C
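Throughout, for protein stability index of tFT-peptide fusion (C-terminal peptide): PSI is a weighted mean of sequencing reads over stability bins, variants kept only with over 10 reads, mCherry proximal and sfGFP distal, peptide attached via GGGS linker.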
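Throughout, for protein stability index of tFT-peptide fusion in deletion strain of DOA10: PSI per variant is the weighted mean of its sequencing read distribution over the sorted stability bins, counting only variants with over 10 reads summed across bins.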
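Throughout, for protein stability index of tFT-peptide fusion in wild type: PSI derived as read-weighted mean over the 8 sorting bins, only variants exceeding 10 total reads kept, mCherry placed adjacent to the peptide and sfGFP distal.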

**Q.** RSLRVLLPLYFR was tested. Which protein stability index did it give?
**A.** 0.3478 ± 0.0013

Tested on: Saccharomyces cerevisiae
Test: protein stability index of tFT-peptide fusion in deletion strain of DOA10 (PSI (0-1 scale)); higher = more stable (slower turnover)
Conditions: not given
Description: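 MPS profiling in S. cerevisiae of two library types built from selected 12-aa C-degron peptides (IN1, IN2, LN1, LN3, VN2, R1-R5, W1-W3, Atg1 and Rpa12 C-termini): saturation mutagenesis libraries and C-terminal +1 capping libraries (13 aa). Each peptide is fused to the C-terminus of a sfGFP-mCherry timer, after a GGGS linker. Cells are FACS-sorted into 8 mCherry/sfGFP bins and sequenced. PSI runs from 0 (unstable) to 1 (stable), measured once in wild type and in the das1Δ or doa10Δ background.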

**Q.** With RSLRVLLPLYFR as the sequence, how does the protein stability index read?
**A.** 0.66

**Q.** With RVTRLDAIYFRF as the sequence, how does the protein stability index read?
**A.** 0.718

**Q.** For RVTRLDAIYFRIK, which protein stability index is on record?
**A.** 0.694

**Q.** Which protein stability index does the source give for RVTRLDAIYFRIS here?
**A.** 0.271

**Q.** RVTRLDAIYFRIT was tested. Which protein stability index did it give?
**A.** 0.243

**Q.** With RVTRLDAIYFSI as the sequence, how does the protein stability index read?
**A.** 0.713

**Q.** RVTRLDAIYNRI was tested. Which protein stability index did it give?
**A.** 0.738

**Q.** How did the protein stability index turn out when RVTRLDMIYFRI was run?
**A.** 0.658

**Q.** How did the protein stability index turn out when RVTRLDQIYFRI was run?
**A.** 0.696

**Q.** Which protein stability index does the source give for RVTRLDRIYFRI here?
**A.** 0.566

**Q.** RVTRMDAIYFRI was tested. Which protein stability index did it give?
**A.** 0.683

**Q.** For TLVSLPILLFFR, which protein stability index is on record?
**A.** 0.613

**Q.** VLYMCSVGCWFR was tested. Which protein stability index did it give?
**A.** 0.521

**Q.** How did the protein stability index turn out when WITLPMCPLLLR was run?
**A.** 0.606

Tested on: Saccharomyces cerevisiae
Test: protein stability index of tFT-peptide fusion in wild type (PSI (0-1 scale)); higher = more stable (slower turnover)
Conditions: genetic background: wild type

**Q.** RSLRVLLPLYFR was tested. Which protein stability index did it give?
**A.** 0.289

**Q.** How did the protein stability index turn out when RVTRLDAIYFRF was run?
**A.** 0.415

**Q.** For RVTRLDAIYFRIK, which protein stability index is on record?
**A.** 0.615

**Q.** How did the protein stability index turn out when RVTRLDAIYFRIS was run?
**A.** 0.206

**Q.** How did the protein stability index turn out when RVTRLDAIYFRIT was run?
**A.** 0.16

**Q.** For RVTRLDAIYFSI, which protein stability index is on record?
**A.** 0.629

**Q.** With RVTRLDAIYNRI as the sequence, how does the protein stability index read?
**A.** 0.697

**Q.** How did the protein stability index turn out when RVTRLDMIYFRI was run?
**A.** 0.236

**Q.** For RVTRLDQIYFRI, which protein stability index is on record?
**A.** 0.403

**Q.** How did the protein stability index turn out when RVTRLDRIYFRI was run?
**A.** 0.243

**Q.** With RVTRMDAIYFRI as the sequence, how does the protein stability index read?
**A.** 0.365

**Q.** With TLVSLPILLFFR as the sequence, how does the protein stability index read?
**A.** 0.0732

**Q.** VLYMCSVGCWFR was tested. Which protein stability index did it give?
**A.** 0.311

**Q.** For WITLPMCPLLLR, which protein stability index is on record?
**A.** 0.31

Tested on: Saccharomyces cerevisiae
Test: protein stability index of tFT-peptide fusion (C-terminal peptide) (PSI (0-1 scale)); higher = more stable (slower turnover)
Conditions: genetic background: cdc34-1; temperature: 37 C
Description: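 MPS profiling in S. cerevisiae of the tFT-X12 degron library: putative degron peptides plus stable controls, 12 aa, fused to the C-terminus of a sfGFP-mCherry timer. Cells are FACS-sorted into 8 mCherry/sfGFP bins and deep-sequenced. PSI runs from 0 (unstable) to 1 (stable). Backgrounds are wild type, das1Δ and doa10Δ at 30 °C, and wild type, das1Δ, cdc34-1 and cdc53-1 at 37 °C; 2-3 technical replicates each.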

**Q.** RSLRVLLPLYFR was tested. Which protein stability index did it give?
**A.** 0.082 ± 0.034

Same assay, conditions: genetic background: cdc53-1; temperature: 37 C

**Q.** For RSLRVLLPLYFR, which protein stability index is on record?
**A.** 0.0762 ± 0.025

Same assay, conditions: genetic background: das1 deletion; temperature: 30 C

**Q.** RSLRVLLPLYFR was tested. Which protein stability index did it give?
**A.** 0.234 ± 0.029

Same assay, conditions: genetic background: das1 deletion; temperature: 37 C

**Q.** RSLRVLLPLYFR was tested. Which protein stability index did it give?
**A.** 0.271 ± 0.004

Same assay, conditions: genetic background: doa10 deletion; temperature: 30 C

**Q.** For RSLRVLLPLYFR, which protein stability index is on record?
**A.** 0.66 ± 0.029

Same assay, conditions: genetic background: wild type; temperature: 30 C

**Q.** How did the protein stability index turn out when RSLRVLLPLYFR was run?
**A.** 0.234 ± 0.022

Same assay, conditions: genetic background: wild type; temperature: 37 C

**Q.** RSLRVLLPLYFR was tested. Which protein stability index did it give?
**A.** 0.266 ± 0.043

— the supplement of paper PMC10724198
